Reference: patent US20240368285A1 (HEFEI TG IMMUNOPHARMA, published 2024)

Key:
MICB005α3-Fc = target: T1, MICB005α3-Fc; test: ELISA on coated MICB*005 α3-Fc (1 µg/ml), HRP anti-human Fab secondary, OD450
T1 construct: also called MICB*005-Fc; domain α3 of MICB-005 Fc fusion protein
Protocol: After the antibodies were added, signal intensity was used for judging the binding characteristics of the antibodies and MICA and MICB.
The fusion proteins (produced in the Applicant's laboratory; an amino acid sequence of MICA002α3-Fc is as set forth in SEQ ID NO: 22; an amino acid sequence of MICA005α3-Fc is as set forth in SEQ ID NO: 24; an amino acid sequence of MICA008α3-Fc is as set forth in SEQ ID NO: 25; an amino acid sequence of MICA004α3-Fc is as set forth in SEQ ID NO: 23; an amino acid sequence of MICB001α3-Fc is as set forth in SEQ ID NO: 26; and an amino acid sequence of MICB005α3-Fc is as set forth in SEQ ID NO: 27) were diluted to a concentration of 1 μg/ml with PBS and then added into a 96-well plate in a volume of 100 μl/well. The plate was placed at 4° C. overnight. The PBS in the 96-well plate was removed by sucking. After the plate was washed with PBST (that is, PBS having a pH value of 7.2 included 0.1 volume % of Tween 20) for 6 times, PBS containing 10% of BSA was added in a volume of 200 μl/well. The plate was incubated at 37° C. for 2 hours for blocking. The blocking solution was removed. […]

[1] = target: T2, MICA on human tumor cells (A-375, A549, HCT-15, MDA-MB-231) (human, UniProt Q29983 24-383); test: flow cytometry on HCT-15 cells, Alexa-647 goat anti-human secondary, % binding ratio
T2 construct: whole, on cells
T2 sequence (looked up): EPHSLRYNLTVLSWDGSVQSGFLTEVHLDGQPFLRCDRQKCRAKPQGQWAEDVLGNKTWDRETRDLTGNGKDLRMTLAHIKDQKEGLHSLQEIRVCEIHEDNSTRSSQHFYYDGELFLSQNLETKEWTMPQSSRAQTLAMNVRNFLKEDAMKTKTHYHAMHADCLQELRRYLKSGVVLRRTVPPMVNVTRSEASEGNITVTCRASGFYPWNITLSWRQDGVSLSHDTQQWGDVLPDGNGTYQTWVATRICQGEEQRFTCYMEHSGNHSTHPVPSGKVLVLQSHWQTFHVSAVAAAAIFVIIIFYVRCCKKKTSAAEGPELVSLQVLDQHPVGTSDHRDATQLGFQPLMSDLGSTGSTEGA
Protocol: (2) Tumor cells were diluted to a density of 2×10⁶/mL with PBS and added into a 1.5 ml EP tube in a volume of 100 l/tube. 10 l/tube of goat serum was added into the EP tube; and blocking was conducted at 4° C. for 30 min. […] The tube was incubated at 4° C. for 30 min. 1 mL of PBS was added into the EP tube, and centrifugation was conducted 4° C. at a rate of 3,500 rpm for 5 min. The supernatant was removed. Then, the EP tube was washed once with the PBS, and the supernatant was removed after centrifugation. The cells were resuspended with PBS in a volume of 100 l/tube. An Alexa-647 labeled goat anti-human secondary antibody (purchased from Jackson lab) was added into the tube in a volume of 1 l/tube, and the tube was incubated in the dark at 4° C. for 30 min. The tube was washed twice with PBS, and the supernatant was removed after centrifugation. The cells were resuspended with the PBS in a volume of 200 l/tube, and detection was conducted by a flow cytometer. The results are as shown in FIG. 17A and FIG. 17B, FIG. 18A and FIG. 18B, FIG. 19A and FIG. 19B, and FIG. 20A and FIG. 20B.

[2] = target: T3, MICA protein (SPR analyte) (human, UniProt Q29983 24-308, limits assumed); test: SPR, Biacore 8K
T3 construct: also called major histocompatibility complex class I chain related polypeptide A
T3 sequence: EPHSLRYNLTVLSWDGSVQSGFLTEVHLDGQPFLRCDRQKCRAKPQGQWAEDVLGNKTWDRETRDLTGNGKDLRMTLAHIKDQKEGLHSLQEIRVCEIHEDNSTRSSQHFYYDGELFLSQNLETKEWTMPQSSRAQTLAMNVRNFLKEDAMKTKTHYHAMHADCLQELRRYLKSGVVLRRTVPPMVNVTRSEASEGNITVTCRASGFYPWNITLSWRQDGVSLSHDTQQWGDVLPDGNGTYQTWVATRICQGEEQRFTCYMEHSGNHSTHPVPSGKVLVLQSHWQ
Protocol: In a Biacore 8K (Cytiva) system, the antibody was diluted to a concentration of 10 µg/mL with running buffer (HBS-EP), and the antibody was conjugated onto a protein A (Cytiva, 29127556) chip at a flow rate of […].
Kinetic and affinity data of binding of the maternal antibody h5A1 and the affinity maturation antibody h5A1002 and MICA were detected.

T1 sequence (chain, as listed by the source limits assumed): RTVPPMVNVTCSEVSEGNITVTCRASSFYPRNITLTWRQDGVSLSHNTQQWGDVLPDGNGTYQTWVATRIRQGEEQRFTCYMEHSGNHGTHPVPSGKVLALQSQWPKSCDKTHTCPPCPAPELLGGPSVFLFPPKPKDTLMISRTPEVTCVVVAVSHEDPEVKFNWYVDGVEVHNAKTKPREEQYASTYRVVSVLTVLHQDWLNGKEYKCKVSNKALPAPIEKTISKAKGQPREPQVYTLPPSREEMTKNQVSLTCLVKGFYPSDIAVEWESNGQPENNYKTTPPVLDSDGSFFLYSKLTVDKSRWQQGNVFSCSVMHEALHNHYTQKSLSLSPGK

B1: affinity maturation antibody h5A1002 (antibody, V domains shown)
VH: QVQLQESGPGLVKPSETLSLTCTVSGFSLTTYGGHWIRQPPGKGLEWIGMIWTDGWTDYNAAFISRVTISVDTSKNQFSLKLSSVTAADTAVYYCARKGHGYYYAMDYWGQGTLVTVSS
VL: EIVLTQSPGTLSLSPGERATLSCTASSSVSSSYLHWYQQKPGQAPRLLIYSTSNLISGIPDRFSGSGSGTDFTLTISRLEPEDFAVYYCHQYHRSPFTFGQGTKLEIKR
notes: Human IgG1, kappa; also called h5A1002-hIgG1
EC50 (read off the curve) (MICB005α3-Fc): ~0.05 µg/mL | EC50 (read off the curve) [1]: ~0.1 µg/mL | fold increase of affinity against maternal antibody h5A1 [2]: ~39 times
